Assay results reported in the supplement of paper PMC12338614.
± gives the uncertainty stated by the source.

B1: library; numbered along this chain (parent)
chain: MEVVDPQQLGMFTEGELMSVGMDTFIHRIDSTEVIYQPRRKRAKLIGKYLMGDLLGEGSYGKVKEVLDSETLCRRAVKILKKKKLRRIPNGEANVKKEIQLLRRLRHKNVIQLVDVLYNEEKQKMYMVMEYCVCGMQEMLDSVPEKRFPVCQAHGYFCQLIDGLEYLHSQGIVHKDIKPGNLLLTTGGTLKISDLGVAEALHPFAADDTCRTSQGSPAFQPPEIANGLDTFSGFKVDIWSAGVTLYNITTGLYPFEGDNIYKLFENIGKGSYAIPGDCGPPLSDLLKGMLEYEPAKRFSIRQIRQHSWFRKKHPPAEAPVPIPPSPDTKDRWRSMTVVPYLEDLHGADEDEDLFDIEDDIIYTQDFTVPGQVPEEEASHNGQRRGLPKAVCMNGTEAAQLSTKSRAEGRAPNPARKACSASSKIRRLSACKQQ

Variants of: B1
Experiment: STK11 functional score (HeLa growth suppression), rescaled enrichment; synonymous median = 1, nonsense median = 0 (normalised score)
Details: with HeLa; variant type: missense
Outline: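 In HeLa, Bxb1 integrated POPCode codon-randomised libraries of codon-optimised STK11 at an AAVS1 landing pad; three regions were each transfected three times. Integrants, marked as BFP-negative and mCherry-positive, were FACS-sorted 4–5 days after electroporation and expanded for about two weeks before tiled gDNA amplicons were sequenced on NextSeq (~2 million reads per tile). Each functional score is a post/pre-selection log ratio corrected to wild type, rescaled to the synonymous and nonsense medians, and merged across codons and replicate transfections, with error estimated by bootstrapping.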

MEVVDPQQLGMFTEGELMSVGMDTFIHRIDSTEVIYQPRRKRAKLIGKYLMGDLLGEGSYGKVKEVLDSETLCRRAVKILKKKKLRRIPNGEANVKKEIQLLRRLRHKNVIQLVDVLYNEEKQKMYMVMEYCVCGMQEMLDSVPEKRFPVCQAHGYFCQLIDGLEYLHSQGIVHKDIKPGNLLLTTGGTLKISDLGVAEALHPFAADDTCRTSQGSPAFQPPEIANGLDTFSGFKVDIWSAGVTLYNITTGLYPFEGDNIYKLFENIGKGSYAIPGDCGPPLSDLLKGMLEYEPAKRFSIRQIRQHSWFRKKHPPAEAPVPIPPSPDTKDRWRSMTVVPYLEDLHGADEDEDLFDIEDDIIYTQDFTVPGQVPEEEASHNGQPRGLPKAVCMNGTEAAQLSTKSRAEGRAPNPARKACSASSKIRRLSACKQQ [R383P] and MEVVDPQQLGMFTEGELMSVGMDTFIHRIDSTEVIYQPRRKRAKLIGKYLMGDLLGEGSYGKVKEVLDSETLCRRAVKILKKKKLRRIPNGEANVKKEIQLLRRLRHKNVIQLVDVLYNEEKQKMYMVMEYCVCGMQEMLDSVPEKRFPVCQAHGYFCQLIDGLEYLHSQGIVHKDIKPGNLLLTTGGTLKISDLGVAEALHPFAADDTCRTSQGSPAFQPPEIANGLDTFSGFKVDIWSAGVTLYNITTGLYPFEGDNIYKLFENIGKGSYAIPGDCGPPLSDLLKGMLEYEPAKRFSIRQIRQHSWFRKKHPPAEAPVPIPPSPDTKDRWRSMTVVPYLEDLHGADQDEDLFDIEDDIIYTQDFTVPGQVPEEEASHNGQRRGLPKAVCMNGTEAAQLSTKSRAEGRAPNPARKACSASSKIRRLSACKQQ [E349Q] are within error of each other in STK11 functional score: 1.31 ± 0.26 for the first, 1.16 ± 0.57 for the second.

MEVVDPQQLGMFTEGELMSVGMDTFIHRIDSTEVIYQPRRKRAKLIGKYLMGDLLGEGSYGKVKEVLDSETLCRRAVKILKKKKLRRIPNGEANVKKEIQLLRRLRHKNVIQLVDVLYNEEKQKMYMVMEYCVCGMQEMLDSVPEKRFPVCQAHGYFRQLIDGLEYLHSQGIVHKDIKPGNLLLTTGGTLKISDLGVAEALHPFAADDTCRTSQGSPAFQPPEIANGLDTFSGFKVDIWSAGVTLYNITTGLYPFEGDNIYKLFENIGKGSYAIPGDCGPPLSDLLKGMLEYEPAKRFSIRQIRQHSWFRKKHPPAEAPVPIPPSPDTKDRWRSMTVVPYLEDLHGADEDEDLFDIEDDIIYTQDFTVPGQVPEEEASHNGQRRGLPKAVCMNGTEAAQLSTKSRAEGRAPNPARKACSASSKIRRLSACKQQ [C158R] and MEVVDPQQLGSFTEGELMSVGMDTFIHRIDSTEVIYQPRRKRAKLIGKYLMGDLLGEGSYGKVKEVLDSETLCRRAVKILKKKKLRRIPNGEANVKKEIQLLRRLRHKNVIQLVDVLYNEEKQKMYMVMEYCVCGMQEMLDSVPEKRFPVCQAHGYFCQLIDGLEYLHSQGIVHKDIKPGNLLLTTGGTLKISDLGVAEALHPFAADDTCRTSQGSPAFQPPEIANGLDTFSGFKVDIWSAGVTLYNITTGLYPFEGDNIYKLFENIGKGSYAIPGDCGPPLSDLLKGMLEYEPAKRFSIRQIRQHSWFRKKHPPAEAPVPIPPSPDTKDRWRSMTVVPYLEDLHGADEDEDLFDIEDDIIYTQDFTVPGQVPEEEASHNGQRRGLPKAVCMNGTEAAQLSTKSRAEGRAPNPARKACSASSKIRRLSACKQQ [M11S] are within error of each other in STK11 functional score: 1.49 ± 0.35 for the first, 1.33 ± 0.41 for the second.

MEVVDPQQLGMFTEGELMSVGMDTFIHRIDSTEVIYQPRRKRAKLIGKYLMGDLLGEGSYGKVKEVLDSETLCRRAVKILKKKKLRRIPNGEANVKKEIQLLRRLRHKNVIQLVDVLYNEEKQKMYMVMEYCVCGMQEMLDSVPEKRFPVCQAHGYFCQLIDGLEYLHSQGIVHKDIKPGNLLLTTSGTLKISDLGVAEALHPFAADDTCRTSQGSPAFQPPEIANGLDTFSGFKVDIWSAGVTLYNITTGLYPFEGDNIYKLFENIGKGSYAIPGDCGPPLSDLLKGMLEYEPAKRFSIRQIRQHSWFRKKHPPAEAPVPIPPSPDTKDRWRSMTVVPYLEDLHGADEDEDLFDIEDDIIYTQDFTVPGQVPEEEASHNGQRRGLPKAVCMNGTEAAQLSTKSRAEGRAPNPARKACSASSKIRRLSACKQQ [G187S] and MEVVDPQQLGMFTEGELMSVGMDTFIHRIDSTEVIYQPRRKRAKLIGKYLMGDLLGEGSYGKVKEVLDSETLCRRAVKILKKKKLRRIPNGEANVKKEIQLLRRLRHKNVIQLVDVLYNEEKQKMYMVMEYCVCGMQEMLDSVPEKRFPVCQAHGYFCQLIDGLEYLHSQGIVHKDIKPGNLLLTTGGTLKISDLGVAEALHPFAADDTCRTSQGSPAFQPPEIANGLDTFSGFKVDIWSAGVTLYNITTGLYPFEGDNIYKLFENIGKGSYAIPGDCGPPLSDLLKGMLEYEPAKRFSIRQIRQHSWFRKKHPPAEAPVPIPPSPDTKDRWRSMTVVPYLEDLHGADEDEDLFDIEDDIIYTQDFTVPGQVPEEEASHNGQRRGLPKAVCMNGTEAAQLSTKSRAEGRAPNPARKRCSASSKIRRLSACKQQ [A417R] are within error of each other in STK11 functional score: 1.67 ± 0.44 for the first, 1.6 ± 0.28 for the second.

Going from MEVVDPQQLGMFTEGELMSVGMDTFIHRIDSTEVIYQPRRKRAKLIGKYLMGDLLGEGSYGKVKEVLDSETLCRRAVKILKKKKLRRIPNGEANVKKEIQLLRRLRHKNVIQLPDVLYNEEKQKMYMVMEYCVCGMQEMLDSVPEKRFPVCQAHGYFCQLIDGLEYLHSQGIVHKDIKPGNLLLTTGGTLKISDLGVAEALHPFAADDTCRTSQGSPAFQPPEIANGLDTFSGFKVDIWSAGVTLYNITTGLYPFEGDNIYKLFENIGKGSYAIPGDCGPPLSDLLKGMLEYEPAKRFSIRQIRQHSWFRKKHPPAEAPVPIPPSPDTKDRWRSMTVVPYLEDLHGADEDEDLFDIEDDIIYTQDFTVPGQVPEEEASHNGQRRGLPKAVCMNGTEAAQLSTKSRAEGRAPNPARKACSASSKIRRLSACKQQ [V114P] to MEVVDPQQLGMFTEGELMSVGMDTFIHRIDSTEVIYQPRRKRAKLIGKYLMGDLLGEGSYGKVKEVLDSETLCRRAVKILKKKKLRRIPNGEANVKKEIQLLRRLRHKNVIQLVDVLYNEEKQKMYMVMEYCVCGMQEMLDSVPEKRFPVCQAHGYFCQLIDGLEYPHSQGIVHKDIKPGNLLLTTGGTLKISDLGVAEALHPFAADDTCRTSQGSPAFQPPEIANGLDTFSGFKVDIWSAGVTLYNITTGLYPFEGDNIYKLFENIGKGSYAIPGDCGPPLSDLLKGMLEYEPAKRFSIRQIRQHSWFRKKHPPAEAPVPIPPSPDTKDRWRSMTVVPYLEDLHGADEDEDLFDIEDDIIYTQDFTVPGQVPEEEASHNGQRRGLPKAVCMNGTEAAQLSTKSRAEGRAPNPARKACSASSKIRRLSACKQQ [L167P], the STK11 functional score falls from 0.872 ± 0.53 to 0.104 ± 0.11.

MEVVDPQQLGMFTEGELMSVGMDTFIHRIDSTEVIYQPRRKRAKLIGKYLMGDLLGEGSYGKVKEVLDSETLCRRAVKILKKKKLRRIPNGEANVKKEIQLLRRLRHKNVIQLVDVLYNEEKQKMYMVMEYCVCGAQEMLDSVPEKRFPVCQAHGYFCQLIDGLEYLHSQGIVHKDIKPGNLLLTTGGTLKISDLGVAEALHPFAADDTCRTSQGSPAFQPPEIANGLDTFSGFKVDIWSAGVTLYNITTGLYPFEGDNIYKLFENIGKGSYAIPGDCGPPLSDLLKGMLEYEPAKRFSIRQIRQHSWFRKKHPPAEAPVPIPPSPDTKDRWRSMTVVPYLEDLHGADEDEDLFDIEDDIIYTQDFTVPGQVPEEEASHNGQRRGLPKAVCMNGTEAAQLSTKSRAEGRAPNPARKACSASSKIRRLSACKQQ [M136A] and MEVVDPQQLGMFTEGELMSVGMDTFIHRIDSTEVIYQPRRKRAKLIGKYLMGDLLGEGSYGKVKEVLDSETLCRRAVKILKKKKLRRIPNGEANVKKEIQLLRRLRHKNVIQLVDVLYNEEKQKMYMVMEYCVCGMQEMLDSVPEKRFPVCQAHGYFCQLIDGLEYLHSQGIVHKDIKPGNLLLTTGGTLKISDLGVAEALHPFAADDTCRTSQGSPAFQPPEIANGLDTFSGFKVDIWSAGVTLYNITTGLYPFEGDNIYKLFENIGKGSYAIPGDCGPPLSTLLKGMLEYEPAKRFSIRQIRQHSWFRKKHPPAEAPVPIPPSPDTKDRWRSMTVVPYLEDLHGADEDEDLFDIEDDIIYTQDFTVPGQVPEEEASHNGQRRGLPKAVCMNGTEAAQLSTKSRAEGRAPNPARKACSASSKIRRLSACKQQ [D284T] are within error of each other in STK11 functional score: 0.691 ± 0.12 for the first, 0.863 ± 0.19 for the second.

Compared with MEVVDPQQLGMFTEGELMSVGMDTFIHRIDSTEVIYQPRRKRAKLIGKYLMGDLLGEGSYGKVKEVLDSETLCRRAVKILKKKKLRRIPNGEANVKKEIQLLRRLRHKNVIQLVDVLYNEEKQKMYMVSEYCVCGMQEMLDSVPEKRFPVCQAHGYFCQLIDGLEYLHSQGIVHKDIKPGNLLLTTGGTLKISDLGVAEALHPFAADDTCRTSQGSPAFQPPEIANGLDTFSGFKVDIWSAGVTLYNITTGLYPFEGDNIYKLFENIGKGSYAIPGDCGPPLSDLLKGMLEYEPAKRFSIRQIRQHSWFRKKHPPAEAPVPIPPSPDTKDRWRSMTVVPYLEDLHGADEDEDLFDIEDDIIYTQDFTVPGQVPEEEASHNGQRRGLPKAVCMNGTEAAQLSTKSRAEGRAPNPARKACSASSKIRRLSACKQQ [M129S], MEVVDPQQLGMFTEGELMSVGMDTFIHRIDSTEVIYQPRRKRAKLIGKYLMGDLLGEGSYGKVKEVLDSETLCRRAVKILKKKKLRRIPNGEANVKKEIQLLRRLRHKNVIQLVDVLYNEEKQKMYMVMEYCVCGMQEMLDSVPEKRFPVCQAHGYFCQLIDGLEYLHSQGIVHKDIKPGNLLLTTGGTLKISDLGVAEALHPFAADDTCRTSQGSPAFQPPEIANGLDTFSGFKVDIWSAGVTLYNITTGLYPFEGDNIYKLFENIGKGSYAIPGDCGPPLSDLLKGMLEYEPAKRFSIRQIRQHSWFRKKHPPAEAPVPIPPSYDTKDRWRSMTVVPYLEDLHGADEDEDLFDIEDDIIYTQDFTVPGQVPEEEASHNGQRRGLPKAVCMNGTEAAQLSTKSRAEGRAPNPARKACSASSKIRRLSACKQQ [P326Y] is lower in STK11 functional score: 0.731 ± 0.16 for the first, 0.263 ± 0.093 for the second.

MEVVDPQQLGMFTEGELMSVGMDTFIHRIDSTEVIYQPRRKRAKLIGKYLMGDLLGEGSYGKVKEVLDSETLCRRAVKILKKKKLRRIPNGEANVKKEIQLLRRLRHKNVIQLVDVLYNEEKQKMYMVMEYCVCGMQEMLDSVPEKRFPVCQAHGYFCQLIDGLEYLHSQGIVHKDIKPGNLLLTTGGTLKISDLGVAEALHPFAADDTCRTSQGSPAFQPPEIANGLDTFSGFKVDIWSAGVTLYNITTGLYPFEGDNIYKLFENIGKGSYAIIGDCGPPLSDLLKGMLEYEPAKRFSIRQIRQHSWFRKKHPPAEAPVPIPPSPDTKDRWRSMTVVPYLEDLHGADEDEDLFDIEDDIIYTQDFTVPGQVPEEEASHNGQRRGLPKAVCMNGTEAAQLSTKSRAEGRAPNPARKACSASSKIRRLSACKQQ [P275I] and MEVVDPQQLGMFTEGELMSVGMDTFIHRIDSTEVIYQPRRKRAKLIGKYLMGDLLGEGSYGKVKEVLDSETLCRRAVKILKKKKLRRIPNGEANVKKEIQLLRRLRHKNVIQLVDVLYNEEKQKMYMVMEYCVCGMQEMLDSVPEKRFPVCQAHGYFCQLIDGLEYLHSQGIVHKDIKPGNLLLTTGGTLKISDLGVAEALHPFAADDTCRTSQGSPAFQPPEIANGLDTFSGFKVDIWSAGVTLYNITTGLYPFEGDNIYKLFENIGKGSYAIPGDCGPPLSDLLKGMLEYEPAKRFSIRQIRQHSWFRKKHPPAEAPVPIPPSPDTKDRWRSMTVVPYLEDLHGADEDEDLFDIEDDIIYTTDFTVPGQVPEEEASHNGQRRGLPKAVCMNGTEAAQLSTKSRAEGRAPNPARKACSASSKIRRLSACKQQ [Q364T] are within error of each other in STK11 functional score: 1.17 ± 0.49 for the first, 1.46 ± 0.14 for the second.
